Experimental data reported in patent US20240376170A1 (BRIGHT PEAK THERAPEUTICS, published 2024).
Blank lines part the entries; values can stand above or below the binder they belong to. Bridges are numbered along the chain shown (N, C = ends). Primed or numbered codes have the meaning given here. [ ]: non-standard residue; d: D form. Ygp(4) = Tyr with amino-capped PEG8 (O-(8x polyethylene glycol-amino)-tyrosine); Yn3(4) = Tyr with azide-capped PEG9 (O-(9x polyethylene glycol-azido)-tyrosine); Ygp = O-(8x polyethylene glycol-amino)-tyrosine (Tyr, amino-capped PEG8); Yn3 = O-(9x polyethylene glycol-azido)-tyrosine (Tyr, azide-capped PEG9); PEG9′ = 9x polyethylene glycol; hSer = N[C@@H](CCO)C(=O)O; Nle = CCCC[C@H](N)C(=O)O

Target: T1, IL-2 receptor βγ complex (human, UniProt P14784 27-551; P31785 23-369)
T1 sequence (looked up) 1: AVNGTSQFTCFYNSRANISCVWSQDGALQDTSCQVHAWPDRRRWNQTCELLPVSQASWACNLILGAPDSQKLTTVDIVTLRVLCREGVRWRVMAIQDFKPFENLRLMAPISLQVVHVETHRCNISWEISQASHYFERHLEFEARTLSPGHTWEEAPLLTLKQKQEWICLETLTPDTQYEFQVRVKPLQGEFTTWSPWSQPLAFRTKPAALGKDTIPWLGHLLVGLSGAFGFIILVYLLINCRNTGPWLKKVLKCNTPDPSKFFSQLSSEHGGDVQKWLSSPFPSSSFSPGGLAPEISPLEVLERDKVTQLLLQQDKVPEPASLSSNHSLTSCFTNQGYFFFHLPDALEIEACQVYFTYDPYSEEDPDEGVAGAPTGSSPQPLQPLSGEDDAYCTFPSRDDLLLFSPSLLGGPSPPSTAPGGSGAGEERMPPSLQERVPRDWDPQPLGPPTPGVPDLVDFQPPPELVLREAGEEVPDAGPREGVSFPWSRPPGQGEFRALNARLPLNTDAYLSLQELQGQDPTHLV
T1 sequence (looked up) 2: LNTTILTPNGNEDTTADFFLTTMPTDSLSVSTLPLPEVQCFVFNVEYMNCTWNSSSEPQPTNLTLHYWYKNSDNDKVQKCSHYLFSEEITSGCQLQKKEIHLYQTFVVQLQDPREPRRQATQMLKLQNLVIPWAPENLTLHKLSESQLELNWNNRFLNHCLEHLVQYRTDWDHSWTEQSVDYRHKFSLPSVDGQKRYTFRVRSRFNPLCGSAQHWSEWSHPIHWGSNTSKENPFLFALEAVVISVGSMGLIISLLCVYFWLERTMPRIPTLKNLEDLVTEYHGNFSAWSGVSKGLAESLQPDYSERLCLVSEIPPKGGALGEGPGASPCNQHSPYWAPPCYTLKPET
Assay: cell-based or functional assay

Average EC50, pSTAT5 Assay (T cells): 53.4 nM
B3: CMP-169 (ligand)
chain: APTSSSTKKTQLQLEHLLLDLQEILNGINNYKNPKLTR[Nle]L[hSer][Yn3(4)]KF[Ygp(4)][Nle]PKKATELKHLQCLEEELKPLEEVL[hSer]LAQSKNFHLRPRDLISNINVIVLELKGSETTF[hSer]CEYADETATIVEFLNRWITFSQSIISTLT
modifications: bridge 9-23; not fully specified (bridges); ends not checked; also: linker peptide sequence not given here

Average EC50, pSTAT5 Assay (T cells): 128 nM
B5: CMP-305 (ligand)
chain: APTSSSTKKTQLQLEHLLLDLQKILNGINNYKNPKLTR[Nle]L[hSer][Yn3]KF[Ygp][Nle]PKKATELKHLQCLEEELKPLEEVL[hSer]LAQSKNFHLRPRDLISNINVIVLELKGSETTF[hSer]CEYADETATIVEFLNRWITFSQSIISTLT
modifications: bridge 15-23; not fully specified (bridges); also: further groups not given here

Average EC50, pSTAT5 Assay (T cells): 180 nM
B6: CMP-301 (ligand)
chain: GPLGLAG[PEG9′]APTSSSTKKTQLQLEHLLLDLQEILNGINNYKNPKLTR[Nle]L[hSer][Yn3(4)]KF[Ygp(4)][Nle]PKKATELKHLQCLEEELKPLEEVL[hSer]LAQSKNFHLRPRDLISNINVIVLELKGSETTF[hSer]CEYADETATIVEFLNRWITFSQSIISTLT
modifications: lactam N-31; ends not checked

Average EC50, pSTAT5 Assay (T cells): 5.39 nM
B7: CMP-169, MMP2 cleaved molecule (ligand)
chain: APTSSSTKKTQLQLEHLLLDLQEILNGINNYKNPKLTR[Nle]L[hSer][Yn3(4)]KF[Ygp(4)][Nle]PKKATELKHLQCLEEELKPLEEVL[hSer]LAQSKNFHLRPRDLISNINVIVLELKGSETTF[hSer]CEYADETATIVEFLNRWITFSQSIISTLT
modifications: not fully specified; ends and bridges not checked; also: cleaved by MMP2, product not given here, Lys9 side chain linked to another sequence via PEG4, Glu23 side chain linked to another sequence

Average EC50, pSTAT5 Assay (T cells): 3.26 nM
B10: CMP-305, MMP2 cleaved molecule (ligand)
chain: APTSSSTKKTQLQLEHLLLDLQKILNGINNYKNPKLTR[Nle]L[hSer][Yn3]KF[Ygp][Nle]PKKATELKHLQCLEEELKPLEEVL[hSer]LAQSKNFHLRPRDLISNINVIVLELKGSETTF[hSer]CEYADETATIVEFLNRWITFSQSIISTLT
modifications: also: m29 after MMP2 cleavage: Glu15-Lys23 cleavable peptide bridge cut, remnants on Glu15 and Lys23 not given here

Average EC50, pSTAT5 Assay (T cells): 0.883 nM
B11: CMP-301, MMP2 cleaved molecule (ligand)
chain: APTSSSTKKTQLQLEHLLLDLQEILNGINNYKNPKLTR[Nle]L[hSer][Yn3(4)]KF[Ygp(4)][Nle]PKKATELKHLQCLEEELKPLEEVL[hSer]LAQSKNFHLRPRDLISNINVIVLELKGSETTF[hSer]CEYADETATIVEFLNRWITFSQSIISTLT
modifications: not fully specified; ends and bridges not checked; also: cleaved by MMP2, product not given here, N-terminus linked to another sequence via PEG9, Glu23 side chain linked to another sequence

Average EC50, pSTAT5 Assay (T cells): 97.9 nM
B13: CMP-303 (ligand)
chain: PLGLAGAPTSSSTKKTQLQLEHLLLDLQEILNGINNYKNPKLTR[Nle]L[hSer][Yn3(4)]KF[Ygp(4)][Nle]PKKATELKHLQCLEEELKPLEEVL[hSer]LAQSKNFHLRPRDLISNINVIVLELKGSETTF[hSer]CEYADETATIVEFLNRWITFSQSIISTLT
modifications: bridge N-29; not fully specified (N-terminus, bridges); ends not checked

Average EC50, pSTAT5 Assay (T cells): 63.4 nM
B14: CMP-302 (ligand)
chain: GPLGLAGAPTSSSTKKTQLQLEHLLLDLQEILNGINNYKNPKLTR[Nle]L[hSer][Yn3(4)]KF[Ygp(4)][Nle]PKKATELKHLQCLEEELKPLEEVL[hSer]LAQSKNFHLRPRDLISNINVIVLELKGSETTF[hSer]CEYADETATIVEFLNRWITFSQSIISTLT
modifications: lactam N-30; ends not checked

Average EC50, pSTAT5 Assay (T cells): 110 nM
B15: CMP-304 (ligand)
chain: PLGLAGAPTSSSTKKTQLQLEHLLLDLQEILNGINNYKNPKLTR[Nle]L[hSer][Yn3(4)]KF[Ygp(4)][Nle]PKKATELKHLQCLEEELKPLEEVL[hSer]LAQSKNFHLRPRDLISNINVIVLELKGSETTF[hSer]CEYADETATIVEFLNRWITFSQSIISTLT
modifications: bridge N-29; not fully specified (N-terminus, bridges); ends not checked

Continued, binder first:

B1: CMP-164, MMP2 cleaved molecule (ligand)
chain: APTSSSTKKTQLQLEHLLLDLQKILNGINNYKNPKLTR[Nle]L[hSer][Yn3]KF[Ygp][Nle]PKKATELKHLQCLEEELKPLEEVL[hSer]LAQSKNFHLRPRDLISNINVIVLELKGSETTF[hSer]CEYADETATIVEFLNRWITFSQSIISTLT
modifications: ends and bridges not checked; also: MMP2 cleaved, cleavage site and linker fragments on N-terminus and Lys23 side chain not given here
Average EC50, pSTAT5 Assay (T cells): 0.61 nM

B2: CMP-165 (ligand)
chain: APTSSSTKKTQLQLEHLLLDLQKILNGINNYKNPKLTR[Nle]L[hSer][Yn3]KF[Ygp][Nle]PKKATELKHLQCLEEELKPLEEVL[hSer]LAQSKNFHLRPRDLISNINVIVLELKGSETTF[hSer]CEYADETATIVEFLNRWITFSQSIISTLT
modifications: bridge N-23; not fully specified (bridges); ends not checked; also: sequence of the cleavable peptide in the bridge not given here
Average EC50, pSTAT5 Assay (T cells): 57.4 nM

B4: CMP-165, MMP2 cleaved molecule (ligand)
chain: APTSSSTKKTQLQLEHLLLDLQKILNGINNYKNPKLTR[Nle]L[hSer][Yn3]KF[Ygp][Nle]PKKATELKHLQCLEEELKPLEEVL[hSer]LAQSKNFHLRPRDLISNINVIVLELKGSETTF[hSer]CEYADETATIVEFLNRWITFSQSIISTLT
modifications: ends and bridges not checked; also: MMP2 cleaved, cleavage site and linker fragments on N-terminus and Lys23 side chain not given here
Average EC50, pSTAT5 Assay (T cells): 1.42 nM

B8: CMP-166, MMP2 cleaved molecule (ligand)
chain: APTSSSTKKTQLQLEHLLLDLQKILNGINNYKNPKLTR[Nle]L[hSer][Yn3]KF[Ygp][Nle]PKKATELKHLQCLEEELKPLEEVL[hSer]LAQSKNFHLRPRDLISNINVIVLELKGSETTF[hSer]CEYADETATIVEFLNRWITFSQSIISTLT
modifications: ends and bridges not checked; also: MMP2 cleaved, cleavage site and linker fragments on N-terminus and Lys23 side chain not given here
Average EC50, pSTAT5 Assay (T cells): 4.36 nM

B9: CMP-167, MMP2 cleaved molecule (ligand)
chain: APTSSSTKKTQLQLEHLLLDLQKILNGINNYKNPKLTR[Nle]L[hSer][Yn3]KF[Ygp][Nle]PKKATELKHLQCLEEELKPLEEVL[hSer]LAQSKNFHLRPRDLISNINVIVLELKGSETTF[hSer]CEYADETATIVEFLNRWITFSQSIISTLT
modifications: ends and bridges not checked; also: MMP2 cleaved, cleavage site and linker fragments on N-terminus and Lys23 side chain not given here
Average EC50, pSTAT5 Assay (T cells): 5.31 nM

B12: CMP-167 (ligand)
chain: APTSSSTKKTQLQLEHLLLDLQKILNGINNYKNPKLTR[Nle]L[hSer][Yn3]KF[Ygp][Nle]PKKATELKHLQCLEEELKPLEEVL[hSer]LAQSKNFHLRPRDLISNINVIVLELKGSETTF[hSer]CEYADETATIVEFLNRWITFSQSIISTLT
modifications: bridge N-23; not fully specified (bridges); ends not checked; also: sequence of the cleavable peptide in the bridge not given here
Average EC50, pSTAT5 Assay (T cells): 176 nM
